Columns and labels:
pH stability of enzyme = format: physicochemical
Protocol: Temperature stability was measured by incubating 0.2 μg of enzyme for 1 h at nine different temperatures ranging from 25 to 60° C. (Table 9). While GOOX-VN and the variant GOOX-V were stable at 45° C., both lost more than 70% activity after incubation for 1 h at 50° C. […] The pH stability of GOOX-VN was determined by incubating 0.2 μg of the enzyme for 1 h at pH values from pH 3 to 12. After 1 h of incubation, GOOX-VN retained more than 80% activity at pH 5 to pH 10, 40% activity at pH 4, and less than 10% activity at pH values below 3 or above 11. Finally, the optimum pH for GOOX-VN activity was determined by incubating 0.1 μg of enzyme at 37° C. for up to 5 min with 25 mM cellobiose in 25 mM Britton-Robinson universal buffer solutions at pH 5 to 12. At regular time points, the chromogenic assay mix containing 400 mM potassium phosphate buffer pH 6, 0.1 mM 4-aminoantipyrine, 1 mM phenol, 3 U/ml horseradish peroxidase and 40 mM cellobiose was added to the reaction and was incubated for approximately 5 min at 37° C., until the chromogenic compound was detected.

[1] = Enzyme stability at 37° C. (residual activity on maltose); format: physicochemical; conditions: pre-incubation at 37° C. for 60 min; 10 mM maltose (FIG. 11)
Protocol: The enzyme stability was evaluated in triplicate by incubating 0.6 μg of each enzyme preparation in 40 mM Tris-HCl buffer (pH 8.0) for 0, 5, 15, 25, 35, and 60 min at 37° C. Residual enzyme activity was measured at 37° C. for 15 min at pH 8.0 using 10 mM maltose and 0.2 μg of protein.

[2] = substrate: OC1OC[C@@H](O[C@@H]2OC[C@@H](O[C@@H]3OC[C@@H](O)[C@H](O)[C@H]3O)[C@H](O)[C@H]2O)[C@H](O)[C@H]1O; assay: purified protein, by the assay type; conditions: other: 37° C., pH 8.0
Protocol: (§1) A chromogenic assay was used to measure hydrogen peroxide production (15). Reactions contained 0.1 mM 4aminoantipyrine (4AA), 1 mM phenol, 0.5 U horseradish peroxidase, 40 mM Tris-HCl (pH 8.0), and different substrates were initiated by adding 0.2 μg of enzymes to the 250 μL reaction mixture. The production of H2O2 was coupled to the oxidation of 4aminoantipyrine by horseradish peroxidase and detected at 500 nm. Reactions were incubated at 37° C. for 15 min to measure the specific activity of GOOX on 10 mM of monosaccharide or 1 mM of oligosaccharide.
(§2) At least 12 substrate concentrations were included to obtain kinetic parameters for each substrate. Initial rates were obtained by measuring reaction products every 30 s for 15 min at 37° C. and pH 8.0, and kinetic parameters were calculated using the Michaelis-Menten equation (GraphPad Prism5 Software).

[3] = substrate: OC1OC[C@@H](O[C@@H]2OC[C@@H](O)[C@H](O)[C@H]2O)[C@H](O)[C@H]1O; assay: purified protein, by the assay type; conditions: other: 37° C., pH 8.0
Protocol: as §1, §2

[4] = substrate: OC[C@H]1O[C@H](O[C@H]2[C@H](O)[C@@H](O)C(O)O[C@@H]2CO)[C@H](O)[C@@H](O)[C@@H]1O; assay: purified protein, by the assay type; conditions: other: 37° C., pH 8.0
Protocol: as §1, §2

B1: Acremonium strictum gluco-oligosaccharide oxidase GOOX-VN (type strain CBS 346.70, V38 and N388), SEQ ID NO. 2 (Sarocladium strictum; A38V/S388N) (protein)
chain: NSINACLAAADVEFHEEDSEGWEMDGTAFNLRVDYDPVAIAIPRSTEDIAAAVQCGLDAGVQISAKGGGHSYGSYGFGGEDGHLMLELDRMYRVSVDDDNVATIQGGARLGYTALELLDQGNRALTHGTCPAVGIGGHVLGGGYGFATHTHGLTLDWLVGATVVLADASIVHVSKTENADLFWALRGGGGGFAIVSEFEFNTFEAPEIITTYQVTTTWNRKQHVAGLKALQDWAENTMPRELSMRLEINANALNWEGNYFGNAKDLKKVLQPIMKKAGGKSTISKLVETDWYGQINTYLYGADLNITYNYDVHEYFYANSLTAPRLSDEAISAFVDYKFDNSSVRPGRGWWIQWDFHGGKNSALASHSNDETAYAHRDQLWLWQFYDNIYDYENNTSPYPESGFEFMQGFVATIEDTLPEDRKGKYFNYADTTLDKEEAQKLYWRGNLEKLQAIKAKYDPEDVFGNVVSVEPIA
- activity retained after 1 h of incubation (pH stability of enzyme; pH 4): 40%
- activity retained after 1 h of incubation (pH stability of enzyme; pH 5 to pH 10): more than 80%
- activity retained after 1 h of incubation (pH stability of enzyme; pH values below 3 or above 11): less than 10%
- activity following pre-incubation [1]: remained active
- Km [2]: 100 ± 10 µM
- kcat [2]: 8.31 ± 0.123 s⁻¹
- kcat/Km [2]: 84300 ± 8530 M⁻¹ s⁻¹
- Km [3]: 100 ± 0 µM
- kcat [3]: 8.813 ± 0.085 s⁻¹
- kcat/Km [3]: 89800 ± 867 M⁻¹ s⁻¹
- Km [4]: 2810 ± 160 µM

Source: patent US20140057332A1, “GLUCO-OLIGOSACCHARIDE OXIDASES FROM ACREMONIUM STRICTUM AND USES THEREOF” (The Governing Council of the University of Toronto, priority 2011, published 2014)
